Laboratory results taken from article PMC11387628.

Legend:
GFP-WIPI2b S68A (human) = test: co-IP; GFP-Trap of GFP-WIPI2b WT or mutants from lysates of transfected HEK293A or HEK293A WIPI2 KO cells (full medium or 2 h EBSS), 2 h at 4 °C; washed in TNTE wash buffer (50 mM Tris pH 7.5, 300 mM NaCl, 5 mM EDTA, 0.1% Triton-X100); endogenous ULK1, ATG13 and ATG16L1 detected by western blot
GFP-WIPI2b S68D (human) = test: as above

“endogenous ATG16L1 (from UniProt Q676U5 1-607) (natural protein)” showed a percent reduction of binding compared to WIPI2b WT (GFP-WIPI2b S68A (human)) of 30% and a percent reduction of binding compared to WIPI2b WT (GFP-WIPI2b S68D (human)) of over 60%.
